Results on one molecule are retold here after paper PMC7269035.

The series deals with LARP1 DM15 F844Y/R847E (FYRE) (Homo sapiens, UniProt Q6PKG0-3 796-946, F844Y;R847E). Nature of the series: EMSA. (In general: Mobility shift assays separate free from complexed probe on a gel.)

B1: m7Gppp-non-TOP (+1G) RPS6 20-mer (ssRNA)
RNA: GCUCUUUUCCGUGGCGCCUC
modifications: 5' m7Gppp cap (vaccinia capping enzyme)
As for B1, the binding result was “binds”.
